Test results: US20200270704A1 (published 2020)
Where two headings read alike, the source gives them in different places.

Assays:
[1] = target: T1, NY-ESO-1 (human, UniProt P78358 1-180); test: SPR
[2] = target: T1, NY-ESO-1; test: SPR; remark: listed apart in the source

T1 sequence (P78358 whole entry): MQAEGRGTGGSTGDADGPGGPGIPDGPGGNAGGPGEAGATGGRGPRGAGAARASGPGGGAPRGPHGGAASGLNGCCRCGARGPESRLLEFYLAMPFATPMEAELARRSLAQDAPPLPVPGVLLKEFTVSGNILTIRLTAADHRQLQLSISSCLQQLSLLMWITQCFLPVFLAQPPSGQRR

Kd [1]: 37 nM
Kd [2]: 37 nM
B1: BC2-3G1 (antibody, V domains shown)
VH: QVQLQQSGPGLVKPSQTLSLTCAISGDSVSSNSAAWNWIRQSPSRGLEWLGRTYYRSKWYNDYAVSVKSRITINPDTSKNQFSLQLNSVTPEDTAVYYCARDLGIAAAGDFDYWGQGTLVTVSS
VL: EIVLTQSPATLSLSPGERATLSCRASQGVSSYLAWYQQKPGQAPRLLIYDASNRATGIPARFSGSGSGTDFTLTISSLEPEDFAVYYCHQGSNWPTFGGGTKVEI
